Article PMC9521807

Molecular target: OsRMC-His (rice (Oryza sativa))
Experiment: BLI

“MoCel6A (analyte of the binding kinetics) (enzyme)” showed a Kd of 0.0219 µM, a koff of 0.000845 s⁻¹ and a kon of 38900 M⁻¹ s⁻¹.
